Test results reported in article PMC9461429.

Target: Human SARS-CoV-2_Wuhan S (SmT1), C-terminally fused to the resistin trimerization domain (SARS-CoV-2 (Wuhan-Hu-1) | not stated)
Experiment: SPR

Chain of Human ACE2 (aa18-615), His6-tagged monomeric ACE2 (Q9BYF1 18-615): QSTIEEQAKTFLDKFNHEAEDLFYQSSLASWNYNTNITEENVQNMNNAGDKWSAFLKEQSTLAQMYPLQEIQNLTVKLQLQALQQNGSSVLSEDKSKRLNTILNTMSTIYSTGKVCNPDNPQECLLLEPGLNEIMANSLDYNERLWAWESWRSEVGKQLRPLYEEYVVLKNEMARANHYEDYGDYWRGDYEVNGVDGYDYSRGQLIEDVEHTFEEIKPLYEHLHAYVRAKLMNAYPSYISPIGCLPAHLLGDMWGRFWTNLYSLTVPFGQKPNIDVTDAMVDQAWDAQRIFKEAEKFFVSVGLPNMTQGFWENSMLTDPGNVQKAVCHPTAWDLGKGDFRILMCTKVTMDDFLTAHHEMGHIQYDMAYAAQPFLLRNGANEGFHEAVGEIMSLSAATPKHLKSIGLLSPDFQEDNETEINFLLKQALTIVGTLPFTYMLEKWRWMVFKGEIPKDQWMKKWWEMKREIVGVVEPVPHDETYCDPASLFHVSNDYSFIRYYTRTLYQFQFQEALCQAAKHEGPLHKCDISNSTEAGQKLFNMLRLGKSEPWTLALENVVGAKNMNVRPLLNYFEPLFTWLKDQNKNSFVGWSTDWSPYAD

Human ACE2 (aa18-615), His6-tagged monomeric ACE2 (from UniProt Q9BYF1-1 18-615) (receptor)
Kd: 165 nM
